Assay results published in publication PMC9606830, “GhBEE3-Like gene regulated by brassinosteroids is involved in cotton drought tolerance”.

Assays:
[1] = target: T1, GhBZR1-His (Gossypium hirsutum, UniProt A0A1B0QVW2 1-313); test: competition; unlabelled competitor against biotinylated GhBEE3-Like Probe; significantly reduced the shift; LightShift Chemiluminescent EMSA Kit (Thermo); buffer, salt, pH and temperature not stated; conditions: protein: recombinant; tags: C-terminal His (pET30a); chain copies: 2; label: none; blunt
T1 sequence: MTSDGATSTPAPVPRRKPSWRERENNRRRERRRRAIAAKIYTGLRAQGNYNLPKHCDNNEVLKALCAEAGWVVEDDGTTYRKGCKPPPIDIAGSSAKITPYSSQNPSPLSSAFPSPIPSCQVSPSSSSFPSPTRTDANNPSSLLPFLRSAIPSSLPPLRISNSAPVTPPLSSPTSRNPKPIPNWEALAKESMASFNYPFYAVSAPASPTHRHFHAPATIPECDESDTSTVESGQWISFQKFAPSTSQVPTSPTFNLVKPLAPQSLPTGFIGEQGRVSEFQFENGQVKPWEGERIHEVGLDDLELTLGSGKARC

[2] = target: T1, GhBZR1-His; test: EMSA; LightShift Chemiluminescent EMSA Kit (Thermo); buffer, salt, pH and temperature not stated; conditions: protein: recombinant; tags: C-terminal His (pET30a); chain copies: 2; label: biotin on both strands (text: 3'-end and 5'-end); blunt

B1: Competitor Probe (dsDNA)
DNA 1: ACAATTACACGTGACATGTC
DNA 2: GACATGTCACGTGTAATTGT
[1]
  binding result: binds

B2: GhBEE3-Like Probe (dsDNA)
DNA 1: ACAATTACACGTGACATGTC
DNA 2: GACATGTCACGTGTAATTGT
[2]
  binding result: binds

B3: Mutant Probe (dsDNA)
DNA 1: ACAATTAAGCGGAACATGTC
DNA 2: GACATGTTCCGCTTAATTGT
[2]
  binding result: no binding
